Data set [1] relates to T1, Cc1cn([C@H]2C[C@H](O)[C@@H](COP(=O)(O)OP(=O)(O)O[C@H]3O[C@@H](C)[C@H](O)[C@@H](O)[C@H]3O)O2)c(=O)[nH]c1=O.
T1 construct: full-length (residues 1 to 377), 43 kDa, His6-tagged (C-terminal from pBAD33-earPPpu, N-terminal from pACYC-DUET for crystallization), expressed in E. coli; monomer
Kind of data set: Western blot quantification (anti-Arg-Rha) of EF-P rhamnosylation. The data set is classed as biochemical, Pseudomonas putida. The note with it: co-substrate unmodified P. putida EF-P 2.5 µM, 100 mM NaPi pH 7.6, 30°C. (In general: In western blotting, separated proteins are transferred to a membrane and probed.)

For data set [2] the test system is unchanged. Described as above. Format: biochemical, Pseudomonas putida. The note with it: co-substrate unmodified P. putida EF-P 2.5 µM, 0.5 µM EarP, 100 mM NaPi pH 7.6, 30°C. An excerpt:
Western blot quantification (anti-Arg-Rha) of EF-P rhamnosylation on EarPPpu (EF-P-arginine rhamnosyltransferase EarP) | when we measured the kinetics of the F191A^EarP and Y193A^EarP variants

Substrate in data set [3]: Cc1cn([C@H]2C[C@H](O)[C@@H](COP(=O)(O)OP(=O)(O)O[C@H]3O[C@@H](C)[C@H](O)[C@@H](O)[C@H]3O)O2)c(=O)[nH]c1=O
Described as above. Format: biochemical, Pseudomonas putida. The note with it: co-substrate unmodified P. putida EF-P 2.5 µM, 0.1 µM EarP, 100 mM NaPi pH 7.6, 30°C, 20 s.

A short description of data set [4]: PcadBA::lacZ β-galactosidase, E. coli Δefp. The note with it: glycan lost; control: EF-PPpu coproduced with wild-type EarPPpu.
Data set [5] concerns the target T2, EarPPpu, EarP from Pseudomonas putida KT2440, purified His6-tagged protein (Pseudomonas putida KT2440, UniProt Q88LS1 2-377).
T2 construct: EarP, Pseudomonas putida KT2440, 43 kDa; domains are told as aa 1-153, 184-361 and 362-377; also called WT^EarP; source: E. coli LMG194 (pBAD33-earPPpu) or E. coli BL21(DE3) (pACYC-DUET-earPPpu), purified (Ni-NTA)
T2 sequence: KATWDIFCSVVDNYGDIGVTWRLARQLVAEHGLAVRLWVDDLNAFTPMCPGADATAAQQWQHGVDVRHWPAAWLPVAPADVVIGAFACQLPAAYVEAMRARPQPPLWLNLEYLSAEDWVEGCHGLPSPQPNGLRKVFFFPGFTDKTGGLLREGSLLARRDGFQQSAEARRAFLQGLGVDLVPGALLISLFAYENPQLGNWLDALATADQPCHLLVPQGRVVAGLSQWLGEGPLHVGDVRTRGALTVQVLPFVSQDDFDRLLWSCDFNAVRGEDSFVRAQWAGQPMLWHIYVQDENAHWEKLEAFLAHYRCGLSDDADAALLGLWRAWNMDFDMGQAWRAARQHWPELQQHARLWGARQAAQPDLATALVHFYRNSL
The data set can be described thus: NMR titration; 15N-labelled EF-P (150 µM unmodified or 41 µM rhamnosylated) titrated with unlabelled EarP to a 1:2 EF-P/EarP molar ratio, 1H-15N HSQC, 298 K, 100 mM NaPi pH 7.6, 50 mM NaCl, 5 mM DTT. The note with it: both partners purified.

[6] abbreviates: lowest-mass SEC fraction of a partly unfolded, aggregating variant.

One may read the Km as the concentration of substrate that gives half-maximal velocity. What is called kcat is the maximal rate divided by the concentration of active sites. In the case of “EarPPpu (EF-P-arginine rhamnosyltransferase EarP) (Pseudomonas putida KT2440; D274A)”, in data set [1] (setting [6]), the Km is recorded as 206 µM and the kcat was determined as 0.0123 s⁻¹.

As for “EarPPpu (EF-P-arginine rhamnosyltransferase EarP) (Pseudomonas putida KT2440; Y193A)”, in data set [2], the Km worked out at 760 µM and the catalytic constant (kcat) worked out at 0.00017 s⁻¹.

Turning to “EarPPpu (EF-P-arginine rhamnosyltransferase EarP) (Pseudomonas putida KT2440; F191A)”, in data set [2], the Km came to 810 µM and the kcat amounted to 0.00017 s⁻¹.

With “EarPPpu (EF-P-arginine rhamnosyltransferase EarP) (Pseudomonas putida KT2440; F252A)”, the Km in data set [1] amounted to 3400 µM.

B1: EarPPpu (EF-P-arginine rhamnosyltransferase EarP) (Pseudomonas putida KT2440) (protein)
chain: MKATWDIFCSVVDNYGDIGVTWRLARQLVAEHGLAVRLWVDDLNAFTPMCPGADATAAQQWQHGVDVRHWPAAWLPVAPADVVIGAFACQLPAAYVEAMRARPQPPLWLNLEYLSAEDWVEGCHGLPSPQPNGLRKVFFFPGFTDKTGGLLREGSLLARRDGFQQSAEARRAFLQGLGVDLVPGALLISLFAYENPQLGNWLDALATADQPCHLLVPQGRVVAGLSQWLGEGPLHVGDVRTRGALTVQVLPFVSQDDFDRLLWSCDFNAVRGEDSFVRAQWAGQPMLWHIYVQDENAHWEKLEAFLAHYRCGLSDDADAALLGLWRAWNMDFDMGQAWRAARQHWPELQQHARLWGARQAAQPDLATALVHFYRNSL
notes: full-length (residues 1 to 377), 43 kDa, His6-tagged (C-terminal from pBAD33-earPPpu, N-terminal from pACYC-DUET for crystallization), expressed in E. coli; monomer
As for B1, in data set [3], the Km is on record as 53 µM and the turnover number (kcat) is 0.583 s⁻¹.

B2: EF-PPpu (translation elongation factor EF-P): coproduction with inactive D13AEarP (protein)
parent chain: MKTGKELKPGTVLRIDNDPWLVQKAEFTKSGRNSAIMKTKLKNLLTGYKTETVYGADDKLDDVILDRKEATLSFINGDEYTFMDTTDYTMYELNAEDIEAVLPYIEEGMEDVCEAVFFEGRLVSVELPTTISRKVVYTENAARGDTSGKVMKPAKLANGTEISVADFIQIDEWIDIDTRDNSFKGRSKK
For the molecule B2, the “other: EF-P translational rescue activity (PcadBA activation)” value in data set [4] is listed as “abolishes”.

B3: EF-PPpu (translation elongation factor EF-P): coproduction with inactive D17AEarP (protein)
parent chain: MKTGKELKPGTVLRIDNDPWLVQKAEFTKSGRNSAIMKTKLKNLLTGYKTETVYGADDKLDDVILDRKEATLSFINGDEYTFMDTTDYTMYELNAEDIEAVLPYIEEGMEDVCEAVFFEGRLVSVELPTTISRKVVYTENAARGDTSGKVMKPAKLANGTEISVADFIQIDEWIDIDTRDNSFKGRSKK
Turning to B3, in data set [4], the “other: EF-P translational rescue activity (PcadBA activation)” value was “abolishes”.

B4: EF-PPpu (translation elongation factor EF-P): coproduction with inactive E273AEarP (protein)
parent chain: MKTGKELKPGTVLRIDNDPWLVQKAEFTKSGRNSAIMKTKLKNLLTGYKTETVYGADDKLDDVILDRKEATLSFINGDEYTFMDTTDYTMYELNAEDIEAVLPYIEEGMEDVCEAVFFEGRLVSVELPTTISRKVVYTENAARGDTSGKVMKPAKLANGTEISVADFIQIDEWIDIDTRDNSFKGRSKK
For the molecule B4, the “other: EF-P translational rescue activity (PcadBA activation)” value in data set [4] is “abolishes”.

B5: rhamnosylated EF-PPpu (EF-P^Rha), purified (natural protein, Pseudomonas putida, UniProt Q88LS0 1-189, looked up)
chain: MKTGKELKPGTVLRIDNDPWLVQKAEFTKSGRNSAIMKTKLKNLLTGYKTETVYGADDKLDDVILDRKEATLSFINGDEYTFMDTTDYTMYELNAEDIEAVLPYIEEGMEDVCEAVFFEGRLVSVELPTTISRKVVYTENAARGDTSGKVMKPAKLANGTEISVADFIQIDEWIDIDTRDNSFKGRSKK
modifications: rhamnosyl-arginine at R32
notes: translation elongation factor EF-P, Pseudomonas putida, rhamnosylated on arginine 32; 15N-labelled for the NMR titration; also called modified EF-P; source: E. coli, cooverproduced with His6-tagged EarPPpu, purified
For B5, the binding result in data set [5] was “binds”.

B6: unmodified EF-PPpu, purified, tag-free (natural protein, Pseudomonas putida, UniProt Q88LS0 1-189, looked up)
chain: MKTGKELKPGTVLRIDNDPWLVQKAEFTKSGRNSAIMKTKLKNLLTGYKTETVYGADDKLDDVILDRKEATLSFINGDEYTFMDTTDYTMYELNAEDIEAVLPYIEEGMEDVCEAVFFEGRLVSVELPTTISRKVVYTENAARGDTSGKVMKPAKLANGTEISVADFIQIDEWIDIDTRDNSFKGRSKK
notes: translation elongation factor EF-P, Pseudomonas putida; 15N-labelled for the NMR titration (grown in M9 minimal medium); source: E. coli BL21(DE3) (pET-SUMO-efpPpu), purified (Ni-NTA, tag removed with His6-Ulp1)
With B6, in data set [5], the binding result is on record as “binds”.

These data come from article PMC5615199, “Structural Basis for EarP-Mediated Arginine Glycosylation of Translation Elongation Factor EF-P” (mBio, 2017).
